The values that follow come from article PMC9232537.

In the experiment the target is 6xHis-N-WASP (UniProt O00401).
Chain of UniProt O00401 (O00401 whole entry): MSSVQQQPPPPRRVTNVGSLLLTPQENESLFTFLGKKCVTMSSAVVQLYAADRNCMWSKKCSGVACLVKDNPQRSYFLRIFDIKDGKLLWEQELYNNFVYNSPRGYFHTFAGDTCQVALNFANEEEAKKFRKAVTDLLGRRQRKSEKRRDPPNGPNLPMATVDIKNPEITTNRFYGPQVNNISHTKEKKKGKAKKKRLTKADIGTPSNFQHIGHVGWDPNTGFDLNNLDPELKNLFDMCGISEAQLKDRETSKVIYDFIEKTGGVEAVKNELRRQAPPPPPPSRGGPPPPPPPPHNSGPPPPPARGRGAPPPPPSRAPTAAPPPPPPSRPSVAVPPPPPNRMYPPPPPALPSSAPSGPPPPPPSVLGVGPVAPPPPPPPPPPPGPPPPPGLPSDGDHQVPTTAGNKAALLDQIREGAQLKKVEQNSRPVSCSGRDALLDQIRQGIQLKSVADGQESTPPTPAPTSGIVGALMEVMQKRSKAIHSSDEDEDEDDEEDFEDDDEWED

Substance purified native MirA (natural protein) yielded a pyrene actin (1 µM, 10% labeled) polymerization with Arp2/3 complex (50 nM), N-WASP (200 nM) and increasing MirA; MirA concentration for half-maximum activity (time to half-maximum fluorescence) of 60 nM.
